Measurements as given in IntAct's records for PubMed 31515488.

B1: EF-hand domain-containing protein 1 (Homo sapiens), Q5JVL4 (parent)
chain: MVSNPVHGLPFLPGTSFKDSTKTAFHRSQTLSYRNGYAIVRRPTVGIGGDRLQFNQLSQAELDELASKAPVLTYGQPKQAPPADFIPAHVAFDKKVLKFDAYFQEDVPMSTEEQYRIRQVNIYYYLEDDSMSVIEPVVENSGILQGKLIKRQRLAKNDRGDHYHWKDLNRGINITIYGKTFRVVDCDQFTQVFLESQGIELNPPEKMALDPYTELRKQPLRKYVTPSDFDQLKQFLTFDKQVLRFYAIWDDTDSMYGECRTYIIHYYLMDDTVEIREVHERNDGRDPFPLLMNRQRVPKVLVENAKNFPQCVLEISDQEVLEWYTAKDFIVGKSLTILGRTFFIYDCDPFTRRYYKEKFGITDLPRIDVSKREPPPVKQELPPYNGFGLVEDSAQNCFALIPKAPKKDVIKMLVNDNKVLRYLAVLESPIPEDKDRRFVFSYFLATDMISIFEPPVRNSGIIGGKYLGRTKVVKPYSTVDNPVYYGPSDFFIGAVIEVFGHRFIILDTDEYVLKYMESNAAQYSPEALASIQNHVRKREAPAPEAESKQTEKDPGVQELEALIDTIQKQLKDHSCKDNIREAFQIYDKEASGYVDRDMFFKICESLNVPVDDSLVKELIRMCSHGEGKINYYNFVRAFSN
B2: Atos homolog protein B (Homo sapiens), Q7L5A3 (parent)
chain: MRHVQAEPSPSSEPEAGPSQPPVRQGALQGGLLMGYSPAGGATSPGVYQVSIFSPPAGTSEPHRALKRQAPSTEGPRELKRGPGLGAREGLPPEEPSTVGLLGPEGPGLGLGVASQHFSHRGLCVVEQRSSVTSSWTSGAWSPPCPPSNASCNTLHTRDWASPDPGGQGSLGESPGPAPPGQLHTLDTDLHSLAQIGGKSPVAGVGNGGSLWPRESPGTANGHSPEHTPPGPGPPGPCPTKRRLLPAGEAPDVSSEEEGPAPRRRRGSLGHPTAANSSDAKATPFWSHLLPGPKEPVLDPTDCGPMGRRLKGARRLKLSPLRSLRKGPGLLSPPSASPVPTPAVSRTLLGNFEESLLRGRFAPSGHIEGFTAEIGASGSYCPQHVTLPVTVTFFDVSEQNAPAPFLGIVDLNPLGRKGYSVPKVGTVQVTLFNPNQTVVKMFLVTFDFSDMPAAHMTFLRHRLFLVPVGEEGNANPTHRLLCYLLHLRFRSSRSGRLSLHGDIRLLFSRRSLELDTGLPYELQAVTEAPHNPRYSPLP
B3: Caspase recruitment domain-containing protein 9 (Homo sapiens), Q9H257 (parent)
chain: MSDYENDDECWSVLEGFRVTLTSVIDPSRITPYLRQCKVLNPDDEEQVLSDPNLVIRKRKVGVLLDILQRTGHKGYVAFLESLELYYPQLYKKVTGKEPARVFSMIIDASGESGLTQLLMTEVMKLQKKVQDLTALLSSKDDFIKELRVKDSLLRKHQERVQRLKEECEAGSRELKRCKEENYDLAMRLAHQSEEKGAALMRNRDLQLEIDQLKHSLMKAEDDCKVERKHTLKLRHAMEQRPSQELLWELQQEKALLQARVQELEASVQEGKLDRSSPYIQVLEEDWRQALRDHQEQANTIFSLRKDLRQGEARRLRCMEEKEMFELQCLALRKDSKMYKDRIEAILLQMEEVAIERDQAIATREELHAQHARGLQEKDALRKQVRELGEKADELQLQVFQCEAQLLAVEGRLRRQQLETLVLSSDLEDGSPRRSQELSLPQDLEDTQLSDKGCLAGGGSPKQPFAALHQEQVLRNPHDAGLSSGEPPEKERRRLKESFENYRRKRALRKMQKGWRQGEEDRENTTGSDNTDTEGS
partner: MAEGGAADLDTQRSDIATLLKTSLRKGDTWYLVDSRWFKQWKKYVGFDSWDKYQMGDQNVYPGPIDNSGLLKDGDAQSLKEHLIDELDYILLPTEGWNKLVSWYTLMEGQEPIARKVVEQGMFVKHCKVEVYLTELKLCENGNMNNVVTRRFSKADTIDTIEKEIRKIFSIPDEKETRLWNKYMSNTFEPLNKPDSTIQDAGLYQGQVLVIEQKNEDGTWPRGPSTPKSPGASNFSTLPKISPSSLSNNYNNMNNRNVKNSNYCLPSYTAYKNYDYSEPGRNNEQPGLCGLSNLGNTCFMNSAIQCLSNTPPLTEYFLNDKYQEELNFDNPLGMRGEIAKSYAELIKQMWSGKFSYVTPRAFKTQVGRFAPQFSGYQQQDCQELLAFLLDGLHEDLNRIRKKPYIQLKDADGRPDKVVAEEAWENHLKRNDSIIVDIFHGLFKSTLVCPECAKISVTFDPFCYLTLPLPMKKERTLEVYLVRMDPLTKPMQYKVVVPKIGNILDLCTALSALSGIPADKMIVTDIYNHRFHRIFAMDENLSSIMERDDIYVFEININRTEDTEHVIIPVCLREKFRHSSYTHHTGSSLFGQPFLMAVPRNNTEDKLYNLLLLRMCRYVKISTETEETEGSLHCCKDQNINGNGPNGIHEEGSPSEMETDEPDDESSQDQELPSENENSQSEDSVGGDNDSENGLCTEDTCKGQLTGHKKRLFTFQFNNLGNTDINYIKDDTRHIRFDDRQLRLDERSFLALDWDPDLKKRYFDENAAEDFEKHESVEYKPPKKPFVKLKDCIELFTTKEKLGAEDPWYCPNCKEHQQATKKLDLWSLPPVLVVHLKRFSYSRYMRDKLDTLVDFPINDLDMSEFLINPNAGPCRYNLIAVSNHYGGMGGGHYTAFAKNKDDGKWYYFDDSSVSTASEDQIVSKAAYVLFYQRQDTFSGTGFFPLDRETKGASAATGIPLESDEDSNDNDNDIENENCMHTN
B4: Testis-specific protein 10-interacting protein (Homo sapiens), Q3SY00 (parent)
chain: MGQDTDMLNTYQQLVRTPSVRPGQDVRLQAPGTRTGLLKLLSTVSQDKQGCLGSGDGVPNQDLQQRSQSSRQTAKKDRKPRGQSKKGQGSEESEDHFPLLPRKPSFPFQWAWESIATDVRAVLQPSSPTPGHQALPMPSSFSQRQSRRKSTANLPEAHGCCWKTEAQNLKARQQLGAWGGVSIPTGKGELGSEPPSGLQLPGRRPGSGSASDKQVQLQSLGAEEAERGLSSGVLPQRPRRGSISEEEQFSEATEEAEEGEHRTPCRRRAGCQRKGQISGEEASDEGEVQGQSQGSSPSFNNLRRRQWRKTRAKELQGPWDLEKLHRQLQRDLDCGPQKLPWKTLRAAFQASKRNGKAYASGYDETFVSANLPNRTFHKRQEATRSLLQAWERQRQEERQQAELRRARTQHVQRQVAHCLAAYAPRGSRGPGAAQRKLEELRRQERQRFAEYQAELQGIQHRVQARPFLFQQAMQANARLTVTRRFSQVLSALGLDEEQLLSEAGKVDREGTPRKPRSHRSMGVRMEHSPQRPPRTEPTGSQPDRHYNPSLDPECSP

Variants of: B1
Conditions: with itf2_human TCF4, P15884
Sequence of itf2_human TCF4, P15884 (P15884 whole entry): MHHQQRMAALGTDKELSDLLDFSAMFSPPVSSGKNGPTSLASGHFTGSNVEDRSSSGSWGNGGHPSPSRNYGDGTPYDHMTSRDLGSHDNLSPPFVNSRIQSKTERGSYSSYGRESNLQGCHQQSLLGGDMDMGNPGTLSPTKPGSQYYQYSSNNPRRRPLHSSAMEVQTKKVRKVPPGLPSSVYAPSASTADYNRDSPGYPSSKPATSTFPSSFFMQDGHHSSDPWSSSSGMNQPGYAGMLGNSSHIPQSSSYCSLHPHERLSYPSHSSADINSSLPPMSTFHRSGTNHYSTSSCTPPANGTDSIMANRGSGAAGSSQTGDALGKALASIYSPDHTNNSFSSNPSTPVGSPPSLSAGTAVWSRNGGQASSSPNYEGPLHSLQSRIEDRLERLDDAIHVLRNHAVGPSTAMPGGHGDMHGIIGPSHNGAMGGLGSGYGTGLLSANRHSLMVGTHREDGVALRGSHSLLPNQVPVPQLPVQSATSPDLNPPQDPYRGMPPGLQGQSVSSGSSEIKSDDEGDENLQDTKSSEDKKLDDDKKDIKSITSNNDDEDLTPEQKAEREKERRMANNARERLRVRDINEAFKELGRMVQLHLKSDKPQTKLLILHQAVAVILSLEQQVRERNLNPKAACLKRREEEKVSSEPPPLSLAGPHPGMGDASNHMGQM

Row | effect of a mutation on the interaction | Variant
1 | with no effect | F229L
2 | with no effect | Y102C
3 | with no effect | R159W

Variants of: B1
Conditions: with ikzf3_human IKZF3, Q9UKT9
Sequence of ikzf3_human IKZF3, Q9UKT9 (Q9UKT9 whole entry): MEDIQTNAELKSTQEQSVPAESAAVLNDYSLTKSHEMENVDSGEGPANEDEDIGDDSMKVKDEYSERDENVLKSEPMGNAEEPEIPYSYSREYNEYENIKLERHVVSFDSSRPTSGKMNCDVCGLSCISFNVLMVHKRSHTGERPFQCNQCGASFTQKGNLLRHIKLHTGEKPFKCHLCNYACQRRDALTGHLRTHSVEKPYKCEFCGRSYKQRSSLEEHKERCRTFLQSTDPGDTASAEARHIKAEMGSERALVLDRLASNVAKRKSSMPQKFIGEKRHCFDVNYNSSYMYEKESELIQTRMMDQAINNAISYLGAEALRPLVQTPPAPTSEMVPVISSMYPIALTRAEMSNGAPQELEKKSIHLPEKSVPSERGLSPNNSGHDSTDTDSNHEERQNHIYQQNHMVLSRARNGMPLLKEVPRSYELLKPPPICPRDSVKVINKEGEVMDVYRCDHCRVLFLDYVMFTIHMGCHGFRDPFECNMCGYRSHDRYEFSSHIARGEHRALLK

Row | effect of a mutation on the interaction | Variant
4 | with no effect | F229L
5 | with no effect | Y102C
6 | with no effect | R159W

Variants of: B2
Conditions: with dnja3_human DNAJA3, Q96EY1
Sequence of dnja3_human DNAJA3, Q96EY1 (Q96EY1 whole entry): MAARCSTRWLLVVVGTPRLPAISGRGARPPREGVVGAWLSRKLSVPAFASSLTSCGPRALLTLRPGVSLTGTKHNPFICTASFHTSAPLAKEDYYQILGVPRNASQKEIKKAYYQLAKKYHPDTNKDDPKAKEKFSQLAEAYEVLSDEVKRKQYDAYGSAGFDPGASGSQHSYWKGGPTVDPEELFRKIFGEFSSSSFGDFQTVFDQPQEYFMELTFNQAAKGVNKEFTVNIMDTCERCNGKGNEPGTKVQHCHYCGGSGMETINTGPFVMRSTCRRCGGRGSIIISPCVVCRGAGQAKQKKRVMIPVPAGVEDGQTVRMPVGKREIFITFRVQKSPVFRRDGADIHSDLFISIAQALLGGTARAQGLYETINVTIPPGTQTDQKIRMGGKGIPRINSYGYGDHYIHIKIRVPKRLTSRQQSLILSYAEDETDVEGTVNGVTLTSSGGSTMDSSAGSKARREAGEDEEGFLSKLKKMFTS

Row | effect of a mutation on the interaction | Variant
7 | with no effect | MRHVQAEPSPSSEPEAGPSQPPVRQGALQGGLLMGYSPAGGATSPGVYQVSIFSPPAGTSEPHRALKRQAPSTEGPRELKRGPGLGAREGLPPEEPSTVGLLGPEGPGLGLGVASQHFSHRGLCVVEQRSSVTSSWTSGAWSPPCPPSNASCNTLHTRDWASPDPGGQGSLGESPGPTPPGQLHTLDTDLHSLAQIGGKSPVAGVGNGGSLWPRESPGTANGHSPEHTPPGPGPPGPCPTKRRLLPAGEAPDVSSEEEGPAPRRRRGSLGHPTAANSSDAKATPFWSHLLPGPKEPVLDPTDCGPMGRRLKGARRLKLSPLRSLRKGPGLLSPPSASPVPTPAVSRTLLGNFEESLLRGRFAPSGHIEGFTAEIGASGSYCPQHVTLPVTVTFFDVSEQNAPAPFLGIVDLNPLGRKGYSVPKVGTVQVTLFNPNQTVVKMFLVTFDFSDMPAAHMTFLRHRLFLVPVGEEGNANPTHRLLCYLLHLRFRSSRSGRLSLHGDIRLLFSRRSLELDTGLPYELQAVTEAPHNPRYSPLP [A178T]

Variants of: B2
Conditions: with cep70_human CEP70, Q8NHQ1
Target sequence in this assay (Q8NHQ1 whole entry): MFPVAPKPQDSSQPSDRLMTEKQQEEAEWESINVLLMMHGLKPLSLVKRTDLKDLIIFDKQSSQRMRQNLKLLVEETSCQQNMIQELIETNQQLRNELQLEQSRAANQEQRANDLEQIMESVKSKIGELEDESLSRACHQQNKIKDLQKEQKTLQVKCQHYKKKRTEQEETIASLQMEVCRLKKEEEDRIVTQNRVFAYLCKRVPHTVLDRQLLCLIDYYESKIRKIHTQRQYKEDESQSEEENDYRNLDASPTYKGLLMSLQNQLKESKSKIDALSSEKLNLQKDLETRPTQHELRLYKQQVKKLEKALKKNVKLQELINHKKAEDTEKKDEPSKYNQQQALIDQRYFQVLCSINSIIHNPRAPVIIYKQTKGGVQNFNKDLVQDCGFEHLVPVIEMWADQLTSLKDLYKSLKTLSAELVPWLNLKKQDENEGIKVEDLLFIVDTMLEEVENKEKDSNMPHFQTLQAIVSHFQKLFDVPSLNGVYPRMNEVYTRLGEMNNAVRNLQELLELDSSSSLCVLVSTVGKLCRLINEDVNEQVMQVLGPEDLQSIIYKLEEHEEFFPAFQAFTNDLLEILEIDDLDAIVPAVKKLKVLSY

Row | effect of a mutation on the interaction | Variant
8 | with no effect | MRHVQAEPSPSSEPEAGPSQPPVRQGALQGGLLMGYSPAGGATSPGVYQVSIFSPPAGTSEPHRALKRQAPSTEGPRELKRGPGLGAREGLPPEEPSTVGLLGPEGPGLGLGVASQHFSHRGLCVVEQRSSVTSSWTSGAWSPPCPPSNASCNTLHTRDWASPDPGGQGSLGESPGPTPPGQLHTLDTDLHSLAQIGGKSPVAGVGNGGSLWPRESPGTANGHSPEHTPPGPGPPGPCPTKRRLLPAGEAPDVSSEEEGPAPRRRRGSLGHPTAANSSDAKATPFWSHLLPGPKEPVLDPTDCGPMGRRLKGARRLKLSPLRSLRKGPGLLSPPSASPVPTPAVSRTLLGNFEESLLRGRFAPSGHIEGFTAEIGASGSYCPQHVTLPVTVTFFDVSEQNAPAPFLGIVDLNPLGRKGYSVPKVGTVQVTLFNPNQTVVKMFLVTFDFSDMPAAHMTFLRHRLFLVPVGEEGNANPTHRLLCYLLHLRFRSSRSGRLSLHGDIRLLFSRRSLELDTGLPYELQAVTEAPHNPRYSPLP [A178T]

Variants of: B2
Conditions: with ikzf1_human IKZF1, Q13422
Sequence of ikzf1_human IKZF1, Q13422 (Q13422 whole entry): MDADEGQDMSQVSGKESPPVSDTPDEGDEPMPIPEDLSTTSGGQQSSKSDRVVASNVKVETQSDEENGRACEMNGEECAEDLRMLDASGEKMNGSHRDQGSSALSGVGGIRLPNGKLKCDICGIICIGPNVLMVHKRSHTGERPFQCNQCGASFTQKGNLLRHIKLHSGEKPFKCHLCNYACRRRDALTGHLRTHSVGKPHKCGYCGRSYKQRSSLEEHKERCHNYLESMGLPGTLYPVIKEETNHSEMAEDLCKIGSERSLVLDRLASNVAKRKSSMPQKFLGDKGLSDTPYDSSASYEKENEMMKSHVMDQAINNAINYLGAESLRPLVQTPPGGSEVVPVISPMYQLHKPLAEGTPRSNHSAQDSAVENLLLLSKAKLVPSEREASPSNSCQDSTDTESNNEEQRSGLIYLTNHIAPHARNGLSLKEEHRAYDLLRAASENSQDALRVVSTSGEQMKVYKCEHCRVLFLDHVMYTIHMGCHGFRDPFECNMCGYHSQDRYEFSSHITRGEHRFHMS

Row | effect of a mutation on the interaction | Variant
9 | with no effect | MRHVQAEPSPSSEPEAGPSQPPVRQGALQGGLLMGYSPAGGATSPGVYQVSIFSPPAGTSEPHRALKRQAPSTEGPRELKRGPGLGAREGLPPEEPSTVGLLGPEGPGLGLGVASQHFSHRGLCVVEQRSSVTSSWTSGAWSPPCPPSNASCNTLHTRDWASPDPGGQGSLGESPGPTPPGQLHTLDTDLHSLAQIGGKSPVAGVGNGGSLWPRESPGTANGHSPEHTPPGPGPPGPCPTKRRLLPAGEAPDVSSEEEGPAPRRRRGSLGHPTAANSSDAKATPFWSHLLPGPKEPVLDPTDCGPMGRRLKGARRLKLSPLRSLRKGPGLLSPPSASPVPTPAVSRTLLGNFEESLLRGRFAPSGHIEGFTAEIGASGSYCPQHVTLPVTVTFFDVSEQNAPAPFLGIVDLNPLGRKGYSVPKVGTVQVTLFNPNQTVVKMFLVTFDFSDMPAAHMTFLRHRLFLVPVGEEGNANPTHRLLCYLLHLRFRSSRSGRLSLHGDIRLLFSRRSLELDTGLPYELQAVTEAPHNPRYSPLP [A178T]

Variants of: B3
Conditions: with ubp15_human USP15, Q9Y4E8

Row | effect of a mutation on the interaction | Variant
10 | disrupting interaction strength | MSDYENDDECWSVLEGFRVTLTSVIDPSRITPYLRQCKVLNPDDEEQVLSDPNLVIRKRKVGVLLDILQRTGHKGYVAFLESLELYYPQLYKKVTGKEPARVFSMIIDASGESGLTQLLMTEVMKLQKKVQDLTALLSSKDDFIKELRVKDSLLRKHQERVQRLKEECEAGSRELKRCKEENYDLAMRLAHQSEEKGAALMRNRDLQLEIDQLKHSLMKAEDDCKVERKHTLKLRHAMEQRPSQELLWELQQEKALLQARVQELEASVQEGKLDRSSPYIQVLEEDWRQALRDHQEQANTIFSLRKDLRQGEARRLRCMEEKEMFELQCLALRKDSKMYKDRIEAILLQMEEVAIERDQAIATREELHAQHARGLQEKDALRKQLRELGEKADELQLQVFQCEAQLLAVEGRLRRQQLETLVLSSDLEDGSPRRSQELSLPQDLEDTQLSDKGCLAGGGSPKQPFAALHQEQVLRNPHDAGLSSGEPPEKERRRLKESFENYRRKRALRKMQKGWRQGEEDRENTTGSDNTDTEGS [V385L]

Variants of: B4
Conditions: with mtus2_human MTUS2, Q5JR59
Sequence of mtus2_human MTUS2, Q5JR59 (Q5JR59 whole entry): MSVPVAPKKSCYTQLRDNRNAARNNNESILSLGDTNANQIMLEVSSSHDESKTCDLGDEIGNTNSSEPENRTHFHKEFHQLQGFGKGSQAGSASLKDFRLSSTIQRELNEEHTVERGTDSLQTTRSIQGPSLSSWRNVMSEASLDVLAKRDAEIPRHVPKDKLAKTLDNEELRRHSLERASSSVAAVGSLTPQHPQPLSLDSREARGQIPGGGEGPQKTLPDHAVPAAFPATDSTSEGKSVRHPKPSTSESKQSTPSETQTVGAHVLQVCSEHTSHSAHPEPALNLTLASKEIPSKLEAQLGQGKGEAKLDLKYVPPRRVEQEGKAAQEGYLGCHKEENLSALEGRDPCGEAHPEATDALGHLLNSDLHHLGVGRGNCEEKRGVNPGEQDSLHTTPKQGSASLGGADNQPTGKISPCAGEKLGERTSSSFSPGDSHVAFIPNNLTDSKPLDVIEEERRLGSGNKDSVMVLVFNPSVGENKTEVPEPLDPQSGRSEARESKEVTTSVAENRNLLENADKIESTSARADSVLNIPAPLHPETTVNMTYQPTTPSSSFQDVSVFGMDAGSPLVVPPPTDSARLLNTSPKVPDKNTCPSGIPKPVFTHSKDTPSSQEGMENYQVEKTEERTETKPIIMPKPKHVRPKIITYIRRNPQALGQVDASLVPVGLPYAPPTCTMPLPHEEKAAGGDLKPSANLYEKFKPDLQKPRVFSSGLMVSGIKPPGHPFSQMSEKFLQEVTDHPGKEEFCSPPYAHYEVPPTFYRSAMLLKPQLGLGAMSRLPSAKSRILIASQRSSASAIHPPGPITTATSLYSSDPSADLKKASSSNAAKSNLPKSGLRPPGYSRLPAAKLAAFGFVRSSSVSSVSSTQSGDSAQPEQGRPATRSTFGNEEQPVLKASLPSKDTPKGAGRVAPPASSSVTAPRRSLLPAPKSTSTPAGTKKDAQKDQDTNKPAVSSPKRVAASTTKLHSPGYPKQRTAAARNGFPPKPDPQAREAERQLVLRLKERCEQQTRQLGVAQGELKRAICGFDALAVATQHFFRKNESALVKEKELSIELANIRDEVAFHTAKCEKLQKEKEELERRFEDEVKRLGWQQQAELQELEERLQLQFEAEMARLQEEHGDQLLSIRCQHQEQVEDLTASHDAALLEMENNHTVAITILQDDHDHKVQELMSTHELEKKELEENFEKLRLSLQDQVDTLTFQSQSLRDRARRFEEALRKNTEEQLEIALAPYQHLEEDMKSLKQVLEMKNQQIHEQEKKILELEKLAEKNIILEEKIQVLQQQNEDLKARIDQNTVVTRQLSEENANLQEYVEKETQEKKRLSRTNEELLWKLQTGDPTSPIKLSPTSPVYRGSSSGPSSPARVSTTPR

Row | Variant | effect of a mutation on the interaction
11 | H96L | with no effect
12 | D25E | with no effect

Other lines, results leading:

Row | effect of a mutation on the interaction | Variant
13 | with no effect | V215A
14 | with no effect | S292N
15 | with no effect | S242L
16 | with no effect | R303Q
17 | with no effect | R237S

Variants of: B4
Conditions: with cep70_human CEP70, Q8NHQ1
Target sequence in this assay (Q8NHQ1 whole entry): as the sequence (Q8NHQ1 whole entry) above

Row | effect of a mutation on the interaction | Variant
18 | with no effect | A210V
19 | with no effect | S242L
